{"source": "patent US20060035230A1", "about": "(BOYCE THOMPSON INSTITUTE FOR PLANT RESEARCH, published 2006)", "molecular_target": "T1, PtiDC1Δ70 (AvrPtoB lacking the first 70 amino acids) (Pseudomonas syringae pv. tomato DC3000, UniProt Q8RSY1 71-553)", "T1 construct": "also called AvrPtoB prey PtiDC1Δ70; avrPtoB (PtiDC1Δ70)", "T1 sequence": "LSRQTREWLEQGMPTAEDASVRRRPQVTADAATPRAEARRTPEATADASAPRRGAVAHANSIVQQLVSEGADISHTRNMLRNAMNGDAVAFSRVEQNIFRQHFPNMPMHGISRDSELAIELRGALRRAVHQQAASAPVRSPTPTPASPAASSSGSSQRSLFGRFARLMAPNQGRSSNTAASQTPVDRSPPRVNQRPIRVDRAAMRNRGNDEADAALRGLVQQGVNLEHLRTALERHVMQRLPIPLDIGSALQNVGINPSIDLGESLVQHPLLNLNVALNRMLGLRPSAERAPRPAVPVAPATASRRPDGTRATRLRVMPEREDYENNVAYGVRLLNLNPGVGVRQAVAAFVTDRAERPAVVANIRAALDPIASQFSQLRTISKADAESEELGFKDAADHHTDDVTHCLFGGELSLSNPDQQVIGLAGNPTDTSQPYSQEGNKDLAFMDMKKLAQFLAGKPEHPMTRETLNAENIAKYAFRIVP", "assay": "LexA yeast two-hybrid, AvrPtoB prey PtiDC1Δ70 against kinase bait"}
{"binder": "Pti1 kinase (enzyme, Bait fusion in pEG202) MSCFSCCDDDDMHRATDNGPFMAHNSAGNNGGQRATESAQRETQTVNIQPIAVPSIAVDELKDITDNFGSKALIGEGSYGRVYHGVLKSGRAAAIKKLDSSKQPDREFLAQVSMVSRLKDENVVELLGYCVDGGFRVLAYEYAPNGSLHDILHGRKGVKGAQPGPVLSWAQRVKIAVGAAKGLEYLHEKAQPHIIHRDIKSSNILLFDDDVAKIADFDLSNQAPDMAARLHSTRVLGTFGYHAPEYAMTGQLSSKSDVYSFGVVLLELLTGRKPVDHTLPRGQQSLVTWATPRLSEDKVKQCVDARLNTDYPPKAIAKMAAVAALCVQYEADFRPNMSIVVKALQPLLPRPVPS", "values": [{"measurement": "binding result", "value": "no binding"}]}
